Experimental data published in paper PMC5087089.

What was measured:
[1] = molecular target: Y98F HA trimer from A/New Caledonia/20/1999 (H1 1999 NC), soluble trimeric format (influenza A virus A/New Caledonia/20/1999 (H1 1999 NC)); assay: SEC; size exclusion on a Sepharose 10/300 column
[2] = molecular target: wildtype (WT) HA trimer from A/New Caledonia/20/1999 (H1 1999 NC), soluble trimeric format (influenza A virus A/New Caledonia/20/1999 (H1 1999 NC)) (UniProt Q6WG00); assay: SEC; size exclusion on a Sepharose 10/300 column

Substance	stoichiometry N [1]	stoichiometry N [2]
Y98F HA trimer from A/New Caledonia/20/1999 (H1 1999 NC), soluble trimeric format (natural protein)	3	–
wildtype (WT) HA trimer from A/New Caledonia/20/1999 (H1 1999 NC), soluble trimeric format (from UniProt Q6WG00 1-565) (natural protein)	–	3
